B1: BBSome complex member BBS1 (Homo sapiens), Q8NFJ9 (parent)
chain: MAAASSSDSDACGAESNEANSKWLDAHYDPMANIHTFSACLALADLHGDGEYKLVVGDLGPGGQQPRLKVLKGPLVMTESPLPALPAAAATFLMEQHEPRTPALALASGPCVYVYKNLRPYFKFSLPQLPPNPLEQDLWNQAKEDRIDPLTLKEMLESIRETAEEPLSIQSLRFLQLELSEMEAFVNQHKSNSIKRQTVITTMTTLKKNLADEDAVSCLVLGTENKELLVLDPEAFTILAKMSLPSVPVFLEVSGQFDVEFRLAAACRNGNIYILRRDSKHPKYCIELSAQPVGLIRVHKVLVVGSTQDSLHGFTHKGKKLWTVQMPAAILTMNLLEQHSRGLQAVMAGLANGEVRIYRDKALLNVIHTPDAVTSLCFGRYGREDNTLIMTTRGGGLIIKILKRTAVFVEGGSEVGPPPAQAMKLNVPRKTRLYVDQTLREREAGTAMHRAFQTDLYLLRLRAARAYLQALESSLSPLSTTAREPLKLHAVVQGLGPTFKLTLHLQNTSTTRPVLGLLVCFLYNEALYSLPRAFFKVPLLVPGLNYPLETFVESLSNKGISDIIKVLVLREGQSAPLLSAHVNMPGSEGLAAA
partner: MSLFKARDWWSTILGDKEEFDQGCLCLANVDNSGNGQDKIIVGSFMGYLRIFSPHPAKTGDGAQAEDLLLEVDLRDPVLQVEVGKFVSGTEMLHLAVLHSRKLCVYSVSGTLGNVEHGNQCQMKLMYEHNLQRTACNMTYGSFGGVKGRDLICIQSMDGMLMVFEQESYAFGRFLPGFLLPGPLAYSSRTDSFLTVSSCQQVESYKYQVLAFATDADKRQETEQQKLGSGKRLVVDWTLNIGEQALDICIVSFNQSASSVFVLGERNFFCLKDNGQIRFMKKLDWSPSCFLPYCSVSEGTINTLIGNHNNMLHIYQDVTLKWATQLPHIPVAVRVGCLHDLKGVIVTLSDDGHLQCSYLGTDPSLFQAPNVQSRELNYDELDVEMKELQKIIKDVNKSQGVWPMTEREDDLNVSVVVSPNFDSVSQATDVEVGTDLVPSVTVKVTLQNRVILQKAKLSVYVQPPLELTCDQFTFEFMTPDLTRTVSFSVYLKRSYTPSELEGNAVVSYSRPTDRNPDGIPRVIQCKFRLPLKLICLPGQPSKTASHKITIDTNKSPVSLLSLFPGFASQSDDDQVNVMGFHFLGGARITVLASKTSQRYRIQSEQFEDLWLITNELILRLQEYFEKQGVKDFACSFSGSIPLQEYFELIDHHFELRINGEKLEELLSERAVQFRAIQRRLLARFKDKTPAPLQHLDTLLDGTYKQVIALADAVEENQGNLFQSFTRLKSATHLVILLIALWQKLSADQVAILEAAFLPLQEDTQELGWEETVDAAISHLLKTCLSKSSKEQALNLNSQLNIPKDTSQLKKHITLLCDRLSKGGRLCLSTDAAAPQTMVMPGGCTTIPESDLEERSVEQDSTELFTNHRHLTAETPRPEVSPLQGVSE

Variants of: B1
Conditions: with pthb1_human BBS9, Q3SYG4

Effect of a mutation on the interaction, with no effect:
P538K
S574K
S574A
S574E
K558E
K558A
S554A
S554K
K565A
K565E
V566A
A533K
A533E
L527K
L527E
L527A
L567E
L567K
L567A
Y523K
V552A
F551K
F551E
F551A
L569A
L569K
I563A
I563E
I563K
N524K
N524E
L555E
L555K
L555A
G572K
G572E
G572A
G559E
G559K
G559A
E549K
E549A
F535A
F535E
F535K
L548K
L548A
Q573K
Q573E
Q573A
L522K
L522E
L522A

Effect of a mutation on the interaction, disrupting interaction strength:
F521E
F521K
S554E
V566K
V566E
L527P
Y528A
Y528C
Y528E
Y528K
Y523A
Y523E
V552K
V552E
L569E
N524A
L539K
L539A
L539E
L530A
L530D
L530T
L530V
L530N
L530K
L530R
L530E
L530Q
L548E

Variants of: B1
Conditions: with pthb1_human BBS9, Q3SYG4
Remark: another data set of the same source

Effect of a mutation on the interaction, with no effect:
L548E

From IntAct's records for PubMed 29039417
